Reference: patent publication US20250171549A1 (Amgen, published 2025)
Numbering of substitutions follows the chain as printed. Names and notes keep the numbering of the source. Where no end group is shown, it is not given here.

How the values were obtained:
human CCR8 [1] = target: T1, human CCR8 (human, UniProt P51685 1-355); experiment: cell-based or functional assay
huCCR8 (1-12)-Nb [2] = target: T2, huCCR8 (1-12)-Nb (human, not fully specified (C-terminus); also: fused to nanobody, biotinylated in Fab assay); experiment: BLI (Octet), mAb on anti-huIgG Fc sensor, peptide-Nb in solution
T2 construct: Expressed in human cells; also called CCR8 peptide-Nb fusion; not shown: nanobody (Nb) fusion partner, any linker or tag to it, and the biotin site
T2 peptide: MDYTLDLSVTTV
Method: (§1) Binding affinities (KD equilibrium dissociation constant) and rate constants (kₐ association rate constant, kd dissociation rate constant) of an Antibody 1 Fab and CCR8-binding monoclonal antibodies (mAbs) of the present invention to a CCR8 1-12 epitope (SEQ ID NO: 82)-nanobody (Nb) fusion protein were measured using an OCTET® Biolayer Interferometry system (Sartorius AG, Göttingen, Germany). The CCR8-nanobody fusion proteins were expressed in human cells. For Fab binding, biotinylated CCR8 peptide-Nb fusions were captured on streptavidin SAX biosensors to loading levels between 2 and 4 nm and then incubated with a dilution series of the soluble Fab (top 100 nM, 6-point, 1:3 serial dilution) for 300 seconds followed by 500 seconds in buffer for dissociation. For mAb binding, mAbs were captured on an anti-huIgG Fc capture biosensor to 1 to 2 nm loading level and then incubated with a dilution series of non-biotinylated CCR8 peptide-Nb fusions (top 100 nM, 6-point, 1:3 serial dilution) for 300 seconds followed by 500 seconds in buffer for dissociation.
(§2) The OCTET® system acquires data over time (seconds) using a mechanism called Biolayer Interferometry; as proteins bind to biosensor tips, a sensitive binding signal in nm is measured by the instrument. All fiber optic tips were used once and then discarded, i.e., no regeneration. OCTET® buffer baselines, dissociation steps, and protein dilutions were made with OCTET® buffer (10 mM TRIS pH 7.5, 150 mM NaCl, 1 mM CaCl₂), 0.13% (v/v) Triton X-100 and 0.10 mg/mL BSA).
(§3) Raw data was processed with GeneData Screener v18 SPR package which uses the same data processing as the OCTET® instrument Data Analysis software (subtract average of two reference wells per column; Align Y-axis to baseline; Interstep correction align to dissociation; and Savitzky-Golay filtering). Each Fab or mAb interaction was grouped into its own sensorgram and globally fit with a 1:1 binding model to determine the association rate constant (kₐ; units M⁻¹ sec⁻¹) and the dissociation rate constant (kd; units sec⁻¹).

huCCR8 (1-12)-Nb [3] = target: T2, huCCR8 (1-12)-Nb; experiment: BLI (Octet), biotinylated peptide-Nb on streptavidin sensor, Fab in solution
Method: as §1, §2, §3

huCCR8 (1-25)[C25S]-Nb = target: T3, huCCR8 (1-25)[C25S]-Nb (human, not fully specified; biotinylated for the Fab assay, non-biotinylated for the mAb assay ; biotinylated when captured on streptavidin sensors (Fab assay); non-biotinylated in the mAb assay); experiment: as above
T3 construct: Expressed in human cells; also called CCR8 peptide-Nb fusion; not shown: nanobody (Nb) fusion partner, any linker or tag to it, and the biotin site
T3 peptide: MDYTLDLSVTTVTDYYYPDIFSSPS

human CCR8 [4] = target: T1, human CCR8; experiment: cell-based or functional assay; remark: listed apart in the source
human CCR8 [5] = target: T1, human CCR8; experiment: cell-based or functional assay; remark: listed apart in the source
human CCR8 [6] = target: T1, human CCR8; experiment: cell-based or functional assay; remark: listed apart in the source

T1 sequence (P51685 whole entry, the tested form may be a part): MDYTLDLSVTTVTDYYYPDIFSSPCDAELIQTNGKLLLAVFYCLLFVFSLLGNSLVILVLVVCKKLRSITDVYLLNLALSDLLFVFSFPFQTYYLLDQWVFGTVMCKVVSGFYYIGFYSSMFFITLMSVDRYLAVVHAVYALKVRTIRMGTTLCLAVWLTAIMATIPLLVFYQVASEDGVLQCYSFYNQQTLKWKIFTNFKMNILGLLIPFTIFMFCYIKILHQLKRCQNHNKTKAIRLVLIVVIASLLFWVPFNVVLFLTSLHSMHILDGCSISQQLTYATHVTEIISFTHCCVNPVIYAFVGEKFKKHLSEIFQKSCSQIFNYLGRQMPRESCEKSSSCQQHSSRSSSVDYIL

B1: huCCR8(32360LC:K38R)_huIgG1z(mAb) (antibody, V domains shown)
VH: EVQLVESGGGLVKPGGSLRLSCAASGFTFSNARMGWVRQAPGKGLEWVGRIKSKTEGGTRDYAAPVKGRFTISRDDSKNTLYLQMNSLKTEDTAVYYCTSYSGVWGQGTMVTVSS
VL: not shown
notes: Afucosylated IgG1, HC without C-terminal lysine
- ADCC, Percent Non-Viable cells (EC50 pM), Donor 8 (human CCR8 [1]): 3 pM
- ADCC, Percent Non-Viable cells (EC50 pM), Donor 9 (human CCR8 [1]): 2.7 pM
- Kd (huCCR8 (1-12)-Nb [2]): 60.6 nM
- koff (huCCR8 (1-12)-Nb [2]): 0.024 s⁻¹
- kon (huCCR8 (1-12)-Nb [2]): 397000 M⁻¹ s⁻¹

B2: Fab (HCVR SEQ ID NO: 13; LCVR SEQ ID NO: 14) (Fab, V domains shown)
VH: B1 VH
VL: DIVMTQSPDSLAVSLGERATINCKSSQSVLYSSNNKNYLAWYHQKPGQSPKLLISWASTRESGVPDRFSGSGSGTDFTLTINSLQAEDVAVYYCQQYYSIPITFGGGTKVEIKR
notes: also called Antibody 1 Fab
- Kd (huCCR8 (1-12)-Nb [3]): 22.6 nM
- koff (huCCR8 (1-12)-Nb [3]): 0.0132 s⁻¹
- kon (huCCR8 (1-12)-Nb [3]): 584000 M⁻¹ s⁻¹
- Kd (huCCR8 (1-25)[C25S]-Nb): 17.4 nM
- koff (huCCR8 (1-25)[C25S]-Nb): 0.0106 s⁻¹
- kon (huCCR8 (1-25)[C25S]-Nb): 606000 M⁻¹ s⁻¹

B3: Antibody 2.1 IgG1 (LC: F2I_P51S_H53Q_L103V_N148K, HC: K87N_S94N_V98A)(LC: Y25A_S26A, HC: A71I_D72R) (antibody, V domains shown)
VH: QVQLVESGGGVVQPGRSLRLSCAASGFTFSNYGMHWVRQAPGKGLEWVAVISYDGSNKFYIRSVKGRFTISRDNSKNTLYLQMNSLRAEDTAVYYCARAGGIGRFDYWGQGTLVTVSS
VL: DIVMTQTPLSLSVTPGQPASISCKAAQSLLHSDGKTYLFWYLQKPGQSPQLLIYEVSNRFSGVPDRFSGSGSGTDFTLKISRVEAEDVGVYYCMQTLKLPLTFGGGTKVEIKR
- ADCC, Percent Non-Viable cells (EC50 pM), Donor 1 (human CCR8 [4]): < 0.256 pM
- ADCC, Percent Non-Viable cells (EC50 pM), Donor 2 (human CCR8 [4]): 13.3 pM
- ADCC, Percent Non-Viable cells (EC50 pM), Donor 3 (human CCR8 [4]): 1 pM

B4: Antibody 6.0 IgG1 (antibody, V domains shown)
VH: QVQLVESGGGVVQPGRSLRLSCEASGFTFSSYVMHWVRQAPGKGLEWVSVISYDGSSQYYTDSVKGRFTISRDNSKNTLNLQMNSLRAEDTAVYYCVRGRLATAILFDYWGQGTLVTVSS
VL: B3 VL with V3L, A25S, A26S, H31Y, K44R, S48P, V90I, T96S, L97I
- Percent Inhibition (IC50 nM) of CCL1-dependent chemotaxis of HUT78 cells (human CCR8 [5]): 20.1 nM
- ADCC, Percent Non-Viable cells (EC50 pM), Donor 1 (human CCR8 [4]): 2 pM
- ADCC, Percent Non-Viable cells (EC50 pM), Donor 2 (human CCR8 [4]): 37.4 pM

B5: Antibody 5.5 IgG1 (VH: G40P_M41V, VL: S57Y_E58L_V67T_F103V)_huIgG1z mAb (antibody, V domains shown)
VH: QVQLVESGGGVVQPGRSLRLSCAASGFTFSSYPVHWVRQAPGKGLEWVAVISYDGSNKYYADSVKGRFTISRDNSKNTLYLQMNSLRAEDTAVYYCARGRYFDWFLFDYWGQGTLVTVSS
VL: B3 VL with I2T, A25S, A26S, S48P, E55L, V56T, T96S, K98R
- ADCC, Percent Non-Viable cells (EC50 pM), Donor 4 (human CCR8 [6]): 4.89 pM
- ADCC, Percent Non-Viable cells (EC50 pM), Donor 5 (human CCR8 [6]): 0.837 pM
- ADCC, Percent Non-Viable cells (EC50 pM), Donor 6 (human CCR8 [6]): 3.77 pM

B6: Antibody 5.2 IgG1 (VH: G40P_F134T, VL: S57Y_E58L_V67R_F103V)_huIgG1z mAb (antibody, V domains shown)
VH: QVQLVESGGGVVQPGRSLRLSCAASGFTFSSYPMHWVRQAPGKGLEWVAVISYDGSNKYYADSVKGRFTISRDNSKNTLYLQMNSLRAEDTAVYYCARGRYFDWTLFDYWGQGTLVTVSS
VL: B3 VL with I2T, A25S, A26S, S48P, E55L, V56R, T96S, K98R
- ADCC, Percent Non-Viable cells (EC50 pM), Donor 4 (human CCR8 [6]): 6.2 pM
- ADCC, Percent Non-Viable cells (EC50 pM), Donor 5 (human CCR8 [6]): 1.01 pM
- ADCC, Percent Non-Viable cells (EC50 pM), Donor 6 (human CCR8 [6]): 6.11 pM

B7: Antibody 5.1 IgG1 (VH: F134T, VL: S34R_S57Y_F103V)_huIgG1z mAb (antibody, V domains shown)
VH: B5 VH with P33G, V34M, F105T
VL: B3 VL with I2T, A25S, A26S, S32R, S48P, T96S, K98R
- ADCC, Percent Non-Viable cells (EC50 pM), Donor 4 (human CCR8 [6]): 3.68 pM
- ADCC, Percent Non-Viable cells (EC50 pM), Donor 5 (human CCR8 [6]): 0.865 pM
- ADCC, Percent Non-Viable cells (EC50 pM), Donor 6 (human CCR8 [6]): 4.89 pM

B8: Antibody 5.3 IgG1 (VH: A71S_D72R, VL: S57Y_E58L_V67S_F103V)_huIgG1z mAb (antibody, V domains shown)
VH: B5 VH with P33G, V34M, A61S, D62R
VL: B3 VL with I2T, A25S, A26S, S48P, E55L, V56S, T96S, K98R
- ADCC, Percent Non-Viable cells (EC50 pM), Donor 4 (human CCR8 [6]): 3.34 pM
- ADCC, Percent Non-Viable cells (EC50 pM), Donor 5 (human CCR8 [6]): 0.642 pM
- ADCC, Percent Non-Viable cells (EC50 pM), Donor 6 (human CCR8 [6]): 3.48 pM
